Key:
Assay in all cases: cell-based or functional assay
[1] = target: IL-2 receptor αβγ on recombinant human U2OS cells further engineered to express the IL-2Rα subunit (PathHunter IL-2 Cytokine Receptor assay) (UniProt P01589)
[2] = target: IL-2βγ receptor complex on recombinant human U2OS cells (PathHunter IL-2 Cytokine Receptor assay) (UniProt P14784)
[3] = target: IL-2 receptor signaling complexes on human primary CD8+ T cells and NK cells (human) (UniProt P14784)
[4] = target: IL-2 receptor signaling complexes on human primary Treg cells (IL-2 Rα expressing) (human) (UniProt P01589)
Sequence of IL-2 receptor signaling complexes on human primary Treg cells (IL-2 Rα expressing) (human) (P01589 22-272, chain 1 of 3): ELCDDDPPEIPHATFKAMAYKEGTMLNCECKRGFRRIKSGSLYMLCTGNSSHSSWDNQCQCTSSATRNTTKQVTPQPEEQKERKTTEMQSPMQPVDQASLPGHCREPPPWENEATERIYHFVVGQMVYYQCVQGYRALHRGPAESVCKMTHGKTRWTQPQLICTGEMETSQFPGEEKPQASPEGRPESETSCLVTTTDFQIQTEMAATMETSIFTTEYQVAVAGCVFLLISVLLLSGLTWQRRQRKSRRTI
Sequence of IL-2 receptor signaling complexes on human primary Treg cells (IL-2 Rα expressing) (human) (P14784 27-551, chain 2 of 3, further chain): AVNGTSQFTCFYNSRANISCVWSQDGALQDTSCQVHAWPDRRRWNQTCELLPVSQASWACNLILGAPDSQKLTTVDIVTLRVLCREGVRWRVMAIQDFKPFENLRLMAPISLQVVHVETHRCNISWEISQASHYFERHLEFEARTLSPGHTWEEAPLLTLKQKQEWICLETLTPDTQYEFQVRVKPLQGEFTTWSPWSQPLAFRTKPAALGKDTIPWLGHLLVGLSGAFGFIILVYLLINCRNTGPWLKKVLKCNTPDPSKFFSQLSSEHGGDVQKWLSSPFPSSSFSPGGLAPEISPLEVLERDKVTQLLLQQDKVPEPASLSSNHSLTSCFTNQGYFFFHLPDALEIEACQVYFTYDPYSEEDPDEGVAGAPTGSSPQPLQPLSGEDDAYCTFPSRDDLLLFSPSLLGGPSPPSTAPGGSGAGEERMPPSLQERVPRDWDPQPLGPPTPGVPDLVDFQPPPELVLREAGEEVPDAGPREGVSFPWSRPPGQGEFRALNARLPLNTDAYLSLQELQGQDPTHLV
Sequence of IL-2 receptor signaling complexes on human primary Treg cells (IL-2 Rα expressing) (human) (P31785 23-369, chain 3 of 3, further chain): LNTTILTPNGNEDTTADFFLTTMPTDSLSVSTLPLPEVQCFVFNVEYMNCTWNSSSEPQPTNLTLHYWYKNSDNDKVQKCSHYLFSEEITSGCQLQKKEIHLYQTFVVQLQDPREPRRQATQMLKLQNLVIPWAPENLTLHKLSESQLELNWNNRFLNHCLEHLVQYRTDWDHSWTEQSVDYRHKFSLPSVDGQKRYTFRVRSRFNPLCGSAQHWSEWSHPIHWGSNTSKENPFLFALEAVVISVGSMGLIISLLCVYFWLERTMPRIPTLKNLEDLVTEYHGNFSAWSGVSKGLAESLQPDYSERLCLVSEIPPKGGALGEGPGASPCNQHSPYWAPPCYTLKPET

Sequence of F42_30kD (P60568 other isoform, or with tags, fused parts or gaps limits assumed): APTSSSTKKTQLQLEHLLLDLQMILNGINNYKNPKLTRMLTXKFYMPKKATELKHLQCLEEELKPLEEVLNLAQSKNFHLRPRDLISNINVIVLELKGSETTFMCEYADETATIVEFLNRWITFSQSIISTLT
Sequence of K43_30kD (P60568 other isoform, or with tags, fused parts or gaps limits assumed): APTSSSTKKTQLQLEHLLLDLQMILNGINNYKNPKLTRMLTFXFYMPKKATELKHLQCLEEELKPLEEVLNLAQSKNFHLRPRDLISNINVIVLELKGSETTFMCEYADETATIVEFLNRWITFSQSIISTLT
Sequence of IL-2 receptor signaling complexes on human primary CD8+ T cells and NK cells (human) (P14784 27-551, chain 1 of 2): as the sequence (P14784 27-551, chain 2 of 3, further chain) above
Sequence of IL-2 receptor signaling complexes on human primary CD8+ T cells and NK cells (human) (P31785 23-369, chain 2 of 2, further chain): as the sequence (P31785 23-369, chain 3 of 3, further chain) above
Sequence of K35 (10 kD PEGylated IL-2 conjugate, Table 2) (P60568 other isoform, or with tags, fused parts or gaps limits assumed): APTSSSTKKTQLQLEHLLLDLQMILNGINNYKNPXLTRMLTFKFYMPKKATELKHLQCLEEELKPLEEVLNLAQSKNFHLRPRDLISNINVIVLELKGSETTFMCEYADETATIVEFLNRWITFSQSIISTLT

Substance	EC50 (nM), PathHunter IL-2 Cytokine Receptor assay, αβγ [1] [nM]	EC50 (nM), PathHunter IL-2 Cytokine Receptor assay, βγ [2] [nM]	EC50 for pSTAT5 signaling; CD8+ T Cells [3] [pg/mL]	EC50 for pSTAT5 signaling; NK Cells [3] [pg/mL]	EC50 for pSTAT5 signaling; Treg Cells [4] [pg/mL]
K35 (10 kD PEGylated IL-2 conjugate, Table 2) (from UniProt P60568 21-153) (ligand)	–	6.75	–	–	–
K43 (10 kD PEGylated IL-2 conjugate, Table 2) (from UniProt P60568 21-153) (ligand)	0.131	9.84	–	–	–
K43_30kD (from UniProt P60568 21-153) (ligand)	–	–	50500	9000	4800
R38 (10 kD PEGylated IL-2 conjugate, Table 2) (from UniProt P60568 21-153) (ligand)	0.165	4.16	–	–	–
T41 (10 kD PEGylated IL-2 conjugate, Table 2) (from UniProt P60568 21-153) (ligand)	0.0489	6.37	–	–	–

The remaining lines, values ahead:

EC50 (nM), PathHunter IL-2 Cytokine Receptor assay, αβγ [1] [nM]	EC50 (nM), PathHunter IL-2 Cytokine Receptor assay, βγ [2] [nM]	EC50 for pSTAT5 signaling; CD8+ T Cells [3] [pg/mL]	EC50 for pSTAT5 signaling; NK Cells [3] [pg/mL]	EC50 for pSTAT5 signaling; Treg Cells [4] [pg/mL]	Substance
0.515	6.09	–	–	–	F42 (10 kD PEGylated IL-2 conjugate, Table 2) (from UniProt P60568 21-153) (ligand)
–	–	108000	16400	36900	F42_30kD (from UniProt P60568 21-153) (ligand)
0.083	9.99	–	–	–	V69* (30 kD PEGylated IL-2 conjugate, Table 2) (from UniProt P60568 21-153) (ligand)
0.11	9.06	–	–	–	Y45* (30 kD PEGylated IL-2 conjugate, Table 2) (from UniProt P60568 21-153) (ligand)
